# Measurements: the supplement of paper PMC12764529
# ± gives the half width of the 95% confidence interval.
# Legend:
# [1] = folding stability dG unfold from chymotrypsin proteolysis; higher = more stable
# Outline: (§1)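 Unfolding free energy was derived, per protease or combined, by relating Bayesian-fitted K50 values from sequencing counts to a sequence-predicted unfolded-state K50 and a shared folded-state K50. The underlying digests exposed cysteine-free mini-proteins under 80 residues, in a PA-tagged cDNA display construct, to trypsin and chymotrypsin at 11 threefold-diluted concentrations and to a no-protease condition. A filter kept only designs with AlphaFold2 dimer inter-PAE above 15.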
# [2] = folding stability dG unfold from trypsin proteolysis; higher = more stable
# Outline: as §1
# [3] = folding stability dG unfold (combined trypsin and chymotrypsin); higher = more stable
# Outline: as §1
Sequence,folding stability dG unfold [1] [kcal/mol],folding stability dG unfold [2] [kcal/mol],folding stability dG unfold [3] [kcal/mol]
SAKFRVTEIHPNGNNFEIRIERYDPNGEKKKLPIPVNADNMQIDEVDGDKITIYFPNNGREITLPLEDLSAG [r14_947_TrROS],-0.114 ± 0.42,-0.594 ± 0.34,-0.152 ± 0.36
SAGGITINEDGTITIEVNGKTYTIKLPPGAEITKIEVLEDGTIKITLRINGKTVTLELKVYKEGEEPSAGGS [r16_635_TrROS_Hall],6.55 ± 0.68,4.56 ± 0.42,> 6
SAGMTITLDGVEITVERVRDEETGEWYYRVTVTVTTEDGEKVTITVTVPEGMTPEQVEALARELAEALASAG [r5_704_TrROS_Hall],4.37 ± 0.096,5.12 ± 0.42,4.54 ± 0.19
SAGGSAGGSAGMLPLEELLKKNPKPIKVLVKVGDTEYLVEVTPGEKKYTIKVKPLKKSKPSAGGSAGGSAGG [r11_549_TrMRF],1.55 ± 0.047,1.08 ± 0.026,1.41 ± 0.076
SAGGSAGGMIEVSYDPVKNRYIATFKFPEGEVTITLPADLSPEEKAAAIKAAAEAAAKEKGIKLSAGGSAGG [r6_679_JUSTAS],2 ± 0.05,1.68 ± 0.025,1.88 ± 0.058
SAGGSAGSMSPEEVAERIRQEALARDPNWTVEVTPLPGPRPVLRLEIYRVDPNSDSVTPVSTLVVGSAGGSA [r15_682_JUSTAS],0.516 ± 0.075,0.857 ± 0.018,0.77 ± 0.086
SAGGMTRVLELTVPVDVIGPEELKALLEALAEDAEVEFEIGPDGLLRVRVTVDVPPDPDAPPDLDGESAGGS [r16_535_TrMRF],2.4 ± 0.099,1.82 ± 0.045,2.33 ± 0.11
SAGGKMVKIEITLSPEEIEKIKEKLEEETGLEVEIKVEKNENGEVKLIITFKSEEAAKKALEKLGIESAGGS [r16_172_TrROS_Hall],3.7 ± 0.15,2.63 ± 0.16,3.42 ± 0.14
SAGGSAEELLKKLKIVEVKEVDGKLYIEIEVDEPGLTVEEIKEILKELNLDVPIEVKEVVVVEEKESAGGSA [r15_599_TrROS_Hall],2.16 ± 0.062,1.69 ± 0.14,1.98 ± 0.11
SAGLEDAQKEKRFVIKIEIRHPNGEKVKMTIAFKPGDPEDIRDELRKMGMPPDDLNERNPNLKIDEIEPSAG [r5_430_TrROS],1.59 ± 0.079,0.646 ± 0.084,1.29 ± 0.11
SAGGKIEELAKELAKKLNIEKVEVEEKDGKLVVKLVVKDKKTNKYYRITIEVDDDGNIKISIEPLPPSAGGS [r16_433_TrROS_Hall],5.17 ± 0.12,3.91 ± 0.2,5.12 ± 0.2
SAGGKKIKAKVIEIKKIGDKVLVTIERPDGSPDEVLIDKKEVAEKITPESEVEIEVFPDGSVKIKVGSAGGS [r16_2_TrMRF],2.03 ± 0.13,1.96 ± 0.087,2.15 ± 0.19
SAGGSAGGSAGPVKTVEVEIPGMSEEELLALLPPGVKRVEIEREEVEPGRVRLRIKVYEESAGGSAGGSAGG [r11_1002_TrROS_Hall],1.3 ± 0.051,0.307 ± 0.062,0.977 ± 0.059
SAGGSAEKEVYLVPFESEEKREKLREALLAEPGIEEVKETEDGVLLVTVPKGLSDKVEKAIKEAGISAGGSA [r15_834_TrMRF],1.08 ± 0.025,1.21 ± 0.047,1.17 ± 0.086
SAGGSAGGSAGMPEKVTLTFERSSEVFDPKLGKWRTLPSTEVVEFDSEEEAEELKEKLGLSAGGSAGGSAGG [r11_984_JUSTAS],0.575 ± 0.36,-0.506 ± 0.55,0.123 ± 0.31
SAKKIILIKAESEEELKKAIEEAKKLAEEGKKVEIIIETPKGLILIEIDVKTKKIKIKNLETGEEIELESAG [r14_423_TrROS_Hall],0.375 ± 0.1,1.49 ± 0.1,1.19 ± 0.23
SAGGGLPASDPDVTATTETFTVTYTEATPEGNPVTTTTTTTVTTYTAPDGAVTTTTTTTSTTVTPASTSAGG [r13_51_JUSTAS],1.77 ± 0.023,1.7 ± 0.062,1.76 ± 0.038
SAGGLPPEIKVEISFTPDPATGKWRGTVTAFDPVTGKTVTVPVTSDTPEELRARLEAAAAAVAAALASAGGS [r8_480_JUSTAS],4.36 ± 0.12,3.03 ± 0.098,4.08 ± 0.14
SAGSKELVIVEKDEPVEGETLDYTNGKKKKFPKKVPVVKEIVLPKNSPEAEKIAKELSPPNVKVEILAKSAG [r5_468_JUSTAS],-0.322 ± 0.11,-1.08 ± 0.81,-0.617 ± 0.32
